FireProtDB (doi:10.1021/bi020461s)

B1: Glutamate dehydrogenase, P96110 (parent)
chain: MPEKSLYEMAVEQFNRAASLMDLESDLAEVLRRPKRVLIVEFPVRMDDGHVEVFTGYRVQHNVARGPAKGGIRYHPDVTLDEVKALAFWMTWKTAVMNLPFGGGKGGVRVDPKKLSRNELERLSRRFFSEIQVIIGPYNDIPAPDVNTNADVMAWYMDTYSMNVGHTVLGIVTGKPVELGGSKGREEATGRGVKVCAGLAMDVLGIDPKKATVAVQGFGNVGQFAALLISQELGSKVVAVSDSRGGIYNPEGFDVEELIRYKKEHGTVVTYPKGERITNEELLELDVDILVPAALEGAIHAGNAERIKAKAVVEGANGPTTPEADEILSRRGILVVPDILANAGGVTVSYFEWVQDLQSFFWDLDQVRNALEKMMKGAFNDVMKVKEKYNVDMRTAAYILAIDRVAYATKKRGIYP

Variants of: B1
Settings: Thermotoga maritima (strain ATCC 43589 / DSM 3109 / JCM 10099 / NBRC 100826 / MSB8), pH 7, CD, sodium phosphate 20 mM, reversible: yes, structure 1B26, whole UniProt chain shown

MPEKSLYEMAVEQFNRAASLMDLESDLAEVLRRPKRVLIVEFPVRMDDGHVEVFTGYRVQHNVARGPAKGGIRYHPDVTLDEVKALAFWMTWKTAVMNLPFGGGKGGVRVDPKKLSRNELERLSRRFFSEIQVIIGPYNDIPAPDVNTNADVMAWYMDTYSMNVGHTVLGIVTGKPVELGGSKGREEATGAGVKVCAGLAMDVLGIDPKKATVAVQGFGNVGQFAALLISQELGSKVVAVSDSRGGIYNPEGFDVEELIRYKKEHGTVVTYPKGERITNEELLELDVDILVPAALEGAIHAGNAERIKAKAVVEGANGPTTPEADEILSRRGILVVPDILANAGGVTVSYFEWVQDLQSFFWDLDQVRNALEKMMKGAFNDVMKVKEKYNVDMRTAAYILAIDRVAYATKKRGIYP [R191A]
ddG of mutation (higher = less stable) (20 °C, GdnHCl): 0.41 kcal/mol
denaturant m value (20 °C, GdnHCl): 2.63 kcal/mol/M
denaturant midpoint (higher = more stable) (20 °C, GdnHCl): 1.59 M
unfolding free energy (20 °C, GdnHCl): 4.71 kcal/mol
ddG of mutation (higher = less stable) (20 °C, Urea): 0.32 kcal/mol
denaturant m value (20 °C, Urea): 1.7 kcal/mol/M
denaturant midpoint (higher = more stable) (20 °C, Urea): 3.1 M
unfolding free energy (20 °C, Urea): 4.53 kcal/mol
ddG of mutation (higher = less stable) (69.5 °C, Thermal): 0.34 kcal/mol
Tm (Thermal): 67.3 °C
change of melting temperature, mutant - wild type (higher = more stable) (Thermal): -2.2 °C
unfolding enthalpy (van 't Hoff) (Thermal): 49.5 kcal/mol

MPEKSLYEMAVEQFNRAASLMDLESDLAEVLRRPKRVLIVEFPVRMDDGHVEVFTGYRVQHNVARGPAKGGIRYHPDVTLDEVKALAFWMTWKTAVMNLPFGGGKGGVRVDPKKLSRNELERLSRRFFSEIQVIIGPYNDIPAPDVNTNADVMAWYMDTYSMNVGHTVLGIVTGKPVELGGSKGREEATGAGVAVCAGLAMDVLGIDPKKATVAVQGFGNVGQFAALLISQALGSKVVAVSDSRGGIYNPEGFDVEELIRYKKEHGTVVTYPKGERITNEELLELDVDILVPAALEGAIHAGNAERIKAKAVVEGANGPTTPEADEILSRRGILVVPDILANAGGVTVSYFEWVQDLQSFFWDLDQVRNALEKMMKGAFNDVMKVKEKYNVDMRTAAYILAIDRVAYATKKRGIYP [R191A E232A K194A]
ddG of mutation (higher = less stable) (20 °C, GdnHCl): -0.03 kcal/mol
denaturant m value (20 °C, GdnHCl): 2.72 kcal/mol/M
denaturant midpoint (higher = more stable) (20 °C, GdnHCl): 1.74 M
unfolding free energy (20 °C, GdnHCl): 5.15 kcal/mol
ddG of mutation (higher = less stable) (20 °C, Urea): -0.04 kcal/mol
denaturant m value (20 °C, Urea): 1.42 kcal/mol/M
denaturant midpoint (higher = more stable) (20 °C, Urea): 3.35 M
unfolding free energy (20 °C, Urea): 4.89 kcal/mol
ddG of mutation (higher = less stable) (69.5 °C, Thermal): -0.2 kcal/mol
Tm (Thermal): 70.8 °C
change of melting temperature, mutant - wild type (higher = more stable) (Thermal): 1.3 °C
unfolding enthalpy (van 't Hoff) (Thermal): 50.6 kcal/mol

MPEKSLYEMAVEQFNRAASLMDLESDLAEVLRRPKRVLIVEFPVRMDDGHVEVFTGYRVQHNVARGPAKGGIRYHPDVTLDEVKALAFWMTWKTAVMNLPFGGGKGGVRVDPKKLSRNELERLSRRFFSEIQVIIGPYNDIPAPDVNTNADVMAWYMDTYSMNVGHTVLGIVTGKPVELGGSKGREEATGAGVKVCAGLAMDVLGIDPKKATVAVQGFGNVGQFAALLISQALGSKVVAVSDSRGGIYNPEGFDVEELIRYKKEHGTVVTYPKGERITNEELLELDVDILVPAALEGAIHAGNAERIKAKAVVEGANGPTTPEADEILSRRGILVVPDILANAGGVTVSYFEWVQDLQSFFWDLDQVRNALEKMMKGAFNDVMKVKEKYNVDMRTAAYILAIDRVAYATKKRGIYP [R191A E232A]
ddG of mutation (higher = less stable) (20 °C, GdnHCl): 0.86 kcal/mol
denaturant m value (20 °C, GdnHCl): 3.08 kcal/mol/M
denaturant midpoint (higher = more stable) (20 °C, GdnHCl): 1.44 M
unfolding free energy (20 °C, GdnHCl): 4.26 kcal/mol
ddG of mutation (higher = less stable) (20 °C, Urea): 0.53 kcal/mol
denaturant m value (20 °C, Urea): 1.53 kcal/mol/M
denaturant midpoint (higher = more stable) (20 °C, Urea): 2.96 M
unfolding free energy (20 °C, Urea): 4.32 kcal/mol
ddG of mutation (higher = less stable) (69.5 °C, Thermal): 0.15 kcal/mol
Tm (Thermal): 68.5 °C
change of melting temperature, mutant - wild type (higher = more stable) (Thermal): -1 °C
unfolding enthalpy (van 't Hoff) (Thermal): 44.6 kcal/mol

MPEKSLYEMAVEQFNRAASLMDLESDLAEVLRRPKRVLIVEFPVRMDDGHVEVFTGYRVQHNVARGPAKGGIRYHPDVTLDEVKALAFWMTWKTAVMNLPFGGGKGGVRVDPKKLSRNELERLSRRFFSEIQVIIGPYNDIPAPDVNTNADVMAWYMDTYSMNVGHTVLGIVTGKPVELGGSKGREEATGRGVAVCAGLAMDVLGIDPKKATVAVQGFGNVGQFAALLISQELGSKVVAVSDSRGGIYNPEGFDVEELIRYKKEHGTVVTYPKGERITNEELLELDVDILVPAALEGAIHAGNAERIKAKAVVEGANGPTTPEADEILSRRGILVVPDILANAGGVTVSYFEWVQDLQSFFWDLDQVRNALEKMMKGAFNDVMKVKEKYNVDMRTAAYILAIDRVAYATKKRGIYP [K194A]
ddG of mutation (higher = less stable) (20 °C, GdnHCl): -0.98 kcal/mol
denaturant m value (20 °C, GdnHCl): 2.74 kcal/mol/M
denaturant midpoint (higher = more stable) (20 °C, GdnHCl): 2.06 M
unfolding free energy (20 °C, GdnHCl): 6.1 kcal/mol
ddG of mutation (higher = less stable) (69.5 °C, Thermal): -0.23 kcal/mol
Tm (Thermal): 71 °C
change of melting temperature, mutant - wild type (higher = more stable) (Thermal): 1.5 °C
unfolding enthalpy (van 't Hoff) (Thermal): 53.8 kcal/mol
